Laboratory results from patent US20250051449A1 (SURFACE ONCOLOGY, published 2025).

T1: human CD112R expressed on Jurkat cells (human, UniProt Q6DKI7 1-326)
T1 construct: whole, on cells; Used for both Jurkat-CD112R OE cells and wild type Jurkat cells; which cells is said under assay; also called PVRIG; Jurkat-CD112R OE
T1 sequence (looked up): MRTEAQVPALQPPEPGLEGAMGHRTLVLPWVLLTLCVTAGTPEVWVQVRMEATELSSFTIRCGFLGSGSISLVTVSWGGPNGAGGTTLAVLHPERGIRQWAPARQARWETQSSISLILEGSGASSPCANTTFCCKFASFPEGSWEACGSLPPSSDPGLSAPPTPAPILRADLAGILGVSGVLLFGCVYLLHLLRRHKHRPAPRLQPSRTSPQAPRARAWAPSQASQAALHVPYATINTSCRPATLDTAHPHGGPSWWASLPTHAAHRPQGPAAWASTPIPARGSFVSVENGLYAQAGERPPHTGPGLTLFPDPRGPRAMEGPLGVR


Key:
[1] = target: T2, mouse CD112R overexpressed on 293T cells (mouse); test: flow cytometry, 293T cells overexpressing mouse CD112R
T2 construct: whole, on cells; also called 293T.mCD112R; 293T-mouse CD112R
Protocol: The ability of anti-CD112R antibodies to bind to mouse CD112R was evaluated on cells overexpressing mouse CD112R. 0.8×10⁵ 293T cells (ATCC CRL-3216) that were engineered to overexpress mouse CD112R (293T.mCD112R) were added to each well of a 96-well V bottom plate and stained with either anti-CD112R antibodies or an IgG1 isotype control at a starting concentration of 10 μg/mL, with 3-fold serial dilutions for 30 minutes at 4° C. Cells were washed twice with PBS+2% FCS and resuspended with Alexa Fluor® 647 anti-human IgG Fc antibody (Biolegend, Cat #409320) diluted 1:100 in PBS+2% FCS and incubated at 4° C. for 20 minutes. Cells were subsequently washed twice and resuspended in PBS+2% FCS. Cellular data was acquired using a LSRFortessa X-20 (BD Biosciences) and analyzed with FlowJo software (Tree Star).
Results are depicted in FIG. 17 and Table 11. Quantitation of antibody binding to 293T.mCD112R cells was assessed by the geometric mean fluorescent intensity (gMFI) of the Alexa Fluor® 647 signal.

[2] = target: T3, mouse CD112R-hIgG4 fusion protein (mouse; human); test: ELISA: coated antibody, titrated mouse CD112R-hIgG4, anti-IgG4 HRP
T3 construct: also called soluble mouse CD112R; soluble murine CD112R
Protocol: The ability of anti-CD112R antibodies to bind to soluble mouse CD112R was evaluated by ELISA. Briefly. 96 well Nunc Maxisorp plates were coated with 1 μg/mL of anti-CD112R antibodies or isotype control (Biolegend. Cat #403502) in PBS overnight at 4° C. […] After blocking, plates were washed 6× with PBST. Next. 100 μL of a mouse CD112R-hIgG4 fusion protein in PBS+1% BSA was added at a final starting concentration of 10 μg/mL, with 4-fold serial dilutions. Plates were incubated at room temperature for 1.5 hours. Next plates were washed 6× with PBST and then incubated with anti-IgG4 HRP (Thermo Fisher, Cat #MA1-33437) in 100 μL for 1 hour at room temperature. Plates were then washed 6× with PBST and developed with TMB substrate (Life Technologies. Cat #002023). The reaction was stopped with an equal volume of stop solution (Life Technologies. Cat #SS04). Absorbance at 450 nm (O.D. 450) was measured on a SpectraMax plate reader.

[3] = target: T1, human CD112R expressed on Jurkat cells; test: flow cytometry, Jurkat cells over-expressing human CD112R, 0.63 ug/mL antibody
Protocol: (§1) The ability of anti-CD112R antibodies to bind to CD112R expressed on cells was evaluated. 1×10⁵ Jurkat cells (acute T cell leukemia cell line, ATCC #TIB-152) that were either wild type or engineered to over-express human CD112R (Jurkat-CD112R OE) were added to each well of a 96-well V bottom plate and stained with either anti-CD112R antibodies or an IgG1 isotype control (0.63 μg/mL) for 1 hour at 4° C. Cells were washed twice with PBS+2% FCS and resuspended with Alexa Fluor® 647 anti-human IgG Fc antibody (Biolegend, Cat #409320) diluted 1:100 in PBS+2% FCS and incubated at 4° C. for 30 minutes. Cells were subsequently washed twice and resuspended in PBS+2% FCS. Cellular data was acquired using a LSRFortessa X-20 (BD Biosciences) and analyzed with FlowJo software (Tree Star).
Results are depicted in FIG. 1. Quantitation of antibody binding to Jurkat-CD112R OE cells was assessed by the geometric mean fluorescent intensity (gMFI) of the Alexa Fluor® 647 signal.

[4] = target: T3, mouse CD112R-hIgG4 fusion protein; test: blocking ELISA: coated mouse CD112, antibody plus mouse CD112R-hIgG4 (2 ug/mL)
Protocol: The ability of species cross reactive anti-CD112R antibodies to block mouse CD112R binding to mouse CD112 was evaluated by ELISA. Briefly. 96 well Nunc Maxisorp plates were coated with 1 μg/mL of mouse CD112 (Sino Biological. Cat #50318-M08H) in PBS overnight at 4° C. […] After blocking, plates were washed 6× with PBST. Next. 50 μL of anti-CD112R antibodies or isotype control (Biolegend. Cat #403502) in PBS+1% BSA were added at a final starting concentration of 40 μg/mL, with 2-fold serial dilutions. 50 μL of a mouse CD112R-hIgG4 fusion protein was also added to each well at a final concentration of 2 μg/mL. Plates were incubated at room temperature for 1.5 hours. Next plates were washed 6× with PBST and then incubated with anti-IgG4 HRP (Thermo Fisher, Cat #MA1-33437) in 100 μL for 1 hour at room temperature. Plates were then washed 6× with PBST and developed with TMB substrate (Life Technologies. Cat #002023). The reaction was stopped with an equal volume of stop solution (Life Technologies. Cat #SS04). Absorbance at 450 nm (O.D. 450) was measured on a SpectraMax plate reader.
Results are depicted in FIG. 19 and Table 11. […] Percent inhibition was calculated as [100−((test sample O.D. 450/Max O.D. 450)*100%)] Max O.D. 450 was defined as absorbance at 450 nm in the absence of antibody.

[5] = target: T1, human CD112R expressed on Jurkat cells; test: flow cytometry, wild type Jurkat cells, 0.63 ug/mL antibody
Protocol: as §1

Binder | gMFI (fold increase over isotype) [1] | EC50 [2] [µg/mL] | gMFI (fold increase over isotype) [3] | mouse CD112/CD112R blocking ELISA max inhibition (%) [4] [%] | gMFI (fold increase over isotype) [5]
Antibody 46 (antibody, V domains shown, in the mouse tumor studies it was used as mouse IgG2a; also called antibody clone number 46; clone 46) VH: EVQLVESGGGLVQPGRSLRLSCTASGFTFGDYAMSWFRQAPGKGLEWVGFIGSKAYGGTTEYTASVKGRFTISRDGSKSIAYLQMNSLKTEDTAVYYCARGPRRYTYGMDVWGQGTTVTVSS VL: DIQMTQSPSSLSASVGDRVTITCRASQSISSYLNWYQQKPGKAPKLLIYAASSLQSGVPSRFSGSGSGTDFTLTISSLQPEDFATYYCQQSSTPLTFGGGTKVEIK | 74.8 fold increase over isotype | 0.181 | 23.8 fold increase over isotype | 88 | 4.2 fold increase over isotype
Antibody 32 (antibody, V domains shown, Purified as IgG; compared with an IgG1 isotype control and detected with anti-human IgG Fc; also called antibody clone number 32; parent clone 32) VH: QVQLVQSGAEVKKPGSSVKVSCKASGGTFSSYAISWVRQAPGQGLEWMGGIIPISGTANYAQKFQGRVTITADESTSTAYMELSSLRSEDTAVYYCARDTGRGYTRHFWFDPWGQGTLVTVSS VL: DIQMTQSPSSLSASVGDRVTITCRASQSISSYLNWYQQKPGKAPKLLIYAASSLQSGVPSRFSGSGSGTDFTLTISSLQPEDFATYYCQQSDILYTFGGGTKVEIK | 14.9 fold increase over isotype | 0.27 | 27.9 fold increase over isotype | 0 | 2.5 fold increase over isotype
Antibody 34 (antibody, V domains shown, Purified as IgG; compared with an IgG1 isotype control and detected with anti-human IgG Fc; also called antibody clone number 34; clone 34) VH: QVQLVQSGAEVKKPGSSVKVSCKASGGTFSSAAISWVRQAPGQGLEWMGGIFPISGHANYAQKFQGRVTITADESTSTAYMELSSLRSEDTAVYYCARDTGRGYTRHFWFDPWGQGTLVTVSS VL: DIQMTQSPSSLSASVGDRVTITCRASQSISSYLNWYQQKPGKAPKLLIYAASSLQSGVPSRFSGSGSGTDFTLTISSLQPEDFATYYCQQSDILYTFGGGTKVEIK | 72.2 fold increase over isotype | 0.0242 | 33.8 fold increase over isotype | 20.3 | 3.8 fold increase over isotype
Antibody 58 (antibody, V domains shown, Purified as IgG; compared with an IgG1 isotype control and detected with anti-human IgG Fc; also called antibody clone number 58; clone 58) VH: EVQLVESGGGLVQPGRSLRLSCTASGFTFGDYAMSWFRQAPGKGLEWVGFIGSKFYGGETEYTASVKGRFTISRDGSKSIAYLQMNSLKTEDTAVYYCARGPRRYTYGMDVWGQGTTVTVSS VL: DIQMTQSPSSLSASVGDRVTITCRASQSISSYLNWYQQKPGKAPKLLIYAASSLQSGVPSRFSGSGSGTDFTLTISSLQPEDFATYYCQQSSTPLTFGGGTKVEIK | 79.4 fold increase over isotype | 0.412 | 37.3 fold increase over isotype | 85.7 | 4.5 fold increase over isotype
Antibody 35 (antibody, V domains shown, Purified as IgG; compared with an IgG1 isotype control and detected with anti-human IgG Fc; also called antibody clone number 35; clone 35) VH: QVQLVQSGAEVKKPGSSVKVSCKASGGTFSSAAISWVRQAPGQGLEWMGNIIPIVGIANYAQKFQGRVTITADESTSTAYMELSSLRSEDTAVYYCARDTGRGYTRHFWFDPWGQGTLVTVSS VL: DIQMTQSPSSLSASVGDRVTITCRASQSISSYLNWYQQKPGKAPKLLIYAASSLQSGVPSRFSGSGSGTDFTLTISSLQPEDFATYYCQQSDILYTFGGGTKVEIK | 55.6 fold increase over isotype | 0.0215 | 32.1 fold increase over isotype | 24.2 | 3.3 fold increase over isotype
Antibody 36 (antibody, V domains shown, Purified as IgG; compared with an IgG1 isotype control and detected with anti-human IgG Fc; also called antibody clone number 36; clone 36) VH: QVQLVQSGAEVKKPGSSVKVSCKASGGTFATYAISWVRQAPGQGLEWMGGIFPLSGTANYAQKFQGRVTITADESTSTAYMELSSLRSEDTAVYYCARDTGRGYTRHFWFDPWGQGTLVTVSS VL: DIQMTQSPSSLSASVGDRVTITCRASQSISSYLNWYQQKPGKAPKLLIYAASSLQSGVPSRFSGSGSGTDFTLTISSLQPEDFATYYCQQSDILYTFGGGTKVEIK | 76.3 fold increase over isotype | 0.0251 | 31 fold increase over isotype | 41.6 | 3.5 fold increase over isotype
Antibody 33 (antibody, V domains shown, Purified as IgG; compared with an IgG1 isotype control and detected with anti-human IgG Fc; also called antibody clone number 33; clone 33) VH: QVQLVQSGAEVKKPGSSVKVSCKASGGTFGNYAISWVRQAPGQGLEWMGGIIPIPGIANYAQKFQGRVTITADESTSTAYMELSSLRSEDTAVYYCARDTGRGYTRHFWFDPWGQGTLVTVSS VL: DIQMTQSPSSLSASVGDRVTITCRASQSISSYLNWYQQKPGKAPKLLIYAASSLQSGVPSRFSGSGSGTDFTLTISSLQPEDFATYYCQQSDILYTFGGGTKVEIK | 73.3 fold increase over isotype | 0.0383 | 34.2 fold increase over isotype | 28.3 | 3.4 fold increase over isotype
